# Experiments:
# MERTK = MERTK (UniProt Q12866); experiment: phosphorylation enrichment, bacterial display (enrichment ratio); higher = better substrate or ligand; peptides without Tyr show the background
# EPHB2 = EPHB2 (UniProt P29323); experiment: as above
# Fer (mouse) = experiment: as above
# Jak2 = Jak2 (UniProt O60674); experiment: as above
# c-Abl (mouse) = experiment: as above
# c-Src = experiment: as above
# FGFR3 = FGFR3 (UniProt P22607); experiment: as above
# Fyn = Fyn (UniProt P06241); experiment: as above
# FGFR1 = FGFR1 (UniProt P11362); experiment: as above
# Chain of FGFR1 (P11362 whole entry, looked up): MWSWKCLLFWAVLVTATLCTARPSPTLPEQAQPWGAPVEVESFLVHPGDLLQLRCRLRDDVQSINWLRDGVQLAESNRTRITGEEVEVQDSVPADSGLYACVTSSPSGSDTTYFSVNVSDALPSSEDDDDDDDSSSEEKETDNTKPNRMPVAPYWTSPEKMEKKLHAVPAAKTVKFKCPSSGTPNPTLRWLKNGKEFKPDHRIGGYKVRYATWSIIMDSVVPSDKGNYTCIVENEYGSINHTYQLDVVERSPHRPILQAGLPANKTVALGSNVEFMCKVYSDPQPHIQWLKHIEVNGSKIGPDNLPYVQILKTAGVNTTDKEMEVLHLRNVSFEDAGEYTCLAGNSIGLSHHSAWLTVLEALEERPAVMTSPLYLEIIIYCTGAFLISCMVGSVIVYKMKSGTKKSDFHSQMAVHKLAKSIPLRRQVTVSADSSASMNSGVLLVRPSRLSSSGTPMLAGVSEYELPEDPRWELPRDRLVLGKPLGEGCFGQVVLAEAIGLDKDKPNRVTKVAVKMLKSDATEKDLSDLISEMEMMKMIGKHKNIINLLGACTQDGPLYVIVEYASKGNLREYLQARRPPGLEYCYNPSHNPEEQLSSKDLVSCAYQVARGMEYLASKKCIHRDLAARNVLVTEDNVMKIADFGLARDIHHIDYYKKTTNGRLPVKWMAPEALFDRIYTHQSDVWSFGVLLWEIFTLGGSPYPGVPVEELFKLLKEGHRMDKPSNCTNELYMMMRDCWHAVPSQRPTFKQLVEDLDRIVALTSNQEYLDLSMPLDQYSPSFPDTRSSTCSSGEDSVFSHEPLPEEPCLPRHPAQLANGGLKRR
# Hck = Hck (UniProt P08631); experiment: as above
# Chain of Hck (P08631 whole entry, looked up): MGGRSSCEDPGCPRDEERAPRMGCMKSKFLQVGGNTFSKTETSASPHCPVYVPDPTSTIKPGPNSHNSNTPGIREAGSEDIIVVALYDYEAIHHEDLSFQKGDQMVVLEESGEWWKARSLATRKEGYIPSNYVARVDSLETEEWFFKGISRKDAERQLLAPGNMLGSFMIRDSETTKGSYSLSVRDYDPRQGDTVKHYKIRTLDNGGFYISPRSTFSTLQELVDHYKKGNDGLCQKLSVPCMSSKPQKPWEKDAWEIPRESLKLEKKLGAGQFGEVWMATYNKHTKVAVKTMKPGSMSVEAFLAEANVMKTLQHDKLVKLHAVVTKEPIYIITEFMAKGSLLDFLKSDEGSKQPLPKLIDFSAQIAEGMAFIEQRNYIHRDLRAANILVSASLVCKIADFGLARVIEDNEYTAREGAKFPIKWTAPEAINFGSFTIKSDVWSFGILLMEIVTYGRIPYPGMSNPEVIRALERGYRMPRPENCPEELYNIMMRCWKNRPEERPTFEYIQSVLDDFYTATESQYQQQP
# AncSZ = experiment: as above
# EPHB1 = EPHB1 (UniProt P54762); experiment: as above
# Chain of EPHB1 (P54762 whole entry, looked up): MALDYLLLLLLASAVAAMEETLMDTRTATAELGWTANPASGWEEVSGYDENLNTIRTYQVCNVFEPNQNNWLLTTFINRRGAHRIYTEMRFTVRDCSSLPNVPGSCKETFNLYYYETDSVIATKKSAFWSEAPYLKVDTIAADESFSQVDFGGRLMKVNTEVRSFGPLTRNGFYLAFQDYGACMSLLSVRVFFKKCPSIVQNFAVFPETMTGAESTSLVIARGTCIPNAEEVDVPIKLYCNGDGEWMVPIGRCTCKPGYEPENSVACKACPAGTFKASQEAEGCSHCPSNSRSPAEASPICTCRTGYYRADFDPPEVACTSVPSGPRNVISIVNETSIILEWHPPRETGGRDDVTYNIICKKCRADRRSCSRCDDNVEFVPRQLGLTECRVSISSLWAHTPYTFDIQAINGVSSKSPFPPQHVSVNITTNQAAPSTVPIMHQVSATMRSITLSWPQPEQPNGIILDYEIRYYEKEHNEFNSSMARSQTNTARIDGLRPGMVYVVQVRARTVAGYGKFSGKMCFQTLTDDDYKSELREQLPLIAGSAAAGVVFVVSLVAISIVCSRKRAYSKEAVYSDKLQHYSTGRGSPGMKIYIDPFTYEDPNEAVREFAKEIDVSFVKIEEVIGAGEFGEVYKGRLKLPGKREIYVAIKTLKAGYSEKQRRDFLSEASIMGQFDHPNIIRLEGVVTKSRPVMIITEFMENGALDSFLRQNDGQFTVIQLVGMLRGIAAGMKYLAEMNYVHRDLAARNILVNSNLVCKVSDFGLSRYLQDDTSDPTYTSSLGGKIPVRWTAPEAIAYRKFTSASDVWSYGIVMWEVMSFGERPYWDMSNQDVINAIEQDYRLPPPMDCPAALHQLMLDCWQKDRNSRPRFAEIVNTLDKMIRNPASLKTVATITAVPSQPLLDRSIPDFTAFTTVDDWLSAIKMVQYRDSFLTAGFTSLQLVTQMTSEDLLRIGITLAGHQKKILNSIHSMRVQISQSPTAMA
# Fes = Fes (UniProt P07332); experiment: as above
# Chain of Fes (P07332 whole entry, looked up): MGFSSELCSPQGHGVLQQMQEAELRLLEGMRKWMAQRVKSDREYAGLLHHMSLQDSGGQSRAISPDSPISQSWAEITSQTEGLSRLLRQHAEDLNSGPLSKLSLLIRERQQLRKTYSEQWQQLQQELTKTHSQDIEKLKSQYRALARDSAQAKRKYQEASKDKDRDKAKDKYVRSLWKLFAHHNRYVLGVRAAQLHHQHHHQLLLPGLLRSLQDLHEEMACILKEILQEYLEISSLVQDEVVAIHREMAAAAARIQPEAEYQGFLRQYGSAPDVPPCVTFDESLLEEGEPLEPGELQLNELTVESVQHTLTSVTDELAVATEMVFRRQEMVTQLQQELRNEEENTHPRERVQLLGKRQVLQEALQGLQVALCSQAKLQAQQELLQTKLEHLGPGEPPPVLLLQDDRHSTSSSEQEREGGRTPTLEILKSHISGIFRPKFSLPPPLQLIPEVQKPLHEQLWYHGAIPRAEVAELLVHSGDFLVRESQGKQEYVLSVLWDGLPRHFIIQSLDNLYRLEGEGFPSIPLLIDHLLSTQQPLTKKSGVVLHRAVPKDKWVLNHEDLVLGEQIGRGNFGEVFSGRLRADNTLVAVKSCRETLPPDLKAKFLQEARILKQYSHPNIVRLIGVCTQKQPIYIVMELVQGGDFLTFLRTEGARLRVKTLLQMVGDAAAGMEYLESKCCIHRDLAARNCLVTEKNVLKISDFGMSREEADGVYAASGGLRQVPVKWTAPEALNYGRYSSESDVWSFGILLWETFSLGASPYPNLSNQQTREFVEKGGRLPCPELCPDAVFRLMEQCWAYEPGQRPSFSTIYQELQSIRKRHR
# Grb2 SH2 = Grb2 SH2 (UniProt P62993); experiment: SH2 binding enrichment of the phosphorylated peptide, bacterial display (enrichment ratio); higher = better substrate or ligand; peptides without Tyr show the background
# SHP2-C SH2 = experiment: as above
# c-Src SH2 = experiment: as above
# 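For SH2 binding enrichment of the phosphorylated peptide, bacterial display in this document: peptide library displayed on the E. coli surface as eCPX fusions, selected cells deep-sequenced, score is each peptide's frequency after selection divided by its frequency in the input.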
# 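For phosphorylation enrichment, bacterial display in this document: 11-residue human phosphosite peptides and single-mutation variants displayed on the E. coli surface, counted by deep sequencing, each peptide's frequency after selection divided by its frequency in the unselected input library; frequency after pTyr selection over input frequency; kinase dosed for 20-30% of maximal phosphorylation in three min.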
# Chain of MERTK (Q12866 whole entry, looked up): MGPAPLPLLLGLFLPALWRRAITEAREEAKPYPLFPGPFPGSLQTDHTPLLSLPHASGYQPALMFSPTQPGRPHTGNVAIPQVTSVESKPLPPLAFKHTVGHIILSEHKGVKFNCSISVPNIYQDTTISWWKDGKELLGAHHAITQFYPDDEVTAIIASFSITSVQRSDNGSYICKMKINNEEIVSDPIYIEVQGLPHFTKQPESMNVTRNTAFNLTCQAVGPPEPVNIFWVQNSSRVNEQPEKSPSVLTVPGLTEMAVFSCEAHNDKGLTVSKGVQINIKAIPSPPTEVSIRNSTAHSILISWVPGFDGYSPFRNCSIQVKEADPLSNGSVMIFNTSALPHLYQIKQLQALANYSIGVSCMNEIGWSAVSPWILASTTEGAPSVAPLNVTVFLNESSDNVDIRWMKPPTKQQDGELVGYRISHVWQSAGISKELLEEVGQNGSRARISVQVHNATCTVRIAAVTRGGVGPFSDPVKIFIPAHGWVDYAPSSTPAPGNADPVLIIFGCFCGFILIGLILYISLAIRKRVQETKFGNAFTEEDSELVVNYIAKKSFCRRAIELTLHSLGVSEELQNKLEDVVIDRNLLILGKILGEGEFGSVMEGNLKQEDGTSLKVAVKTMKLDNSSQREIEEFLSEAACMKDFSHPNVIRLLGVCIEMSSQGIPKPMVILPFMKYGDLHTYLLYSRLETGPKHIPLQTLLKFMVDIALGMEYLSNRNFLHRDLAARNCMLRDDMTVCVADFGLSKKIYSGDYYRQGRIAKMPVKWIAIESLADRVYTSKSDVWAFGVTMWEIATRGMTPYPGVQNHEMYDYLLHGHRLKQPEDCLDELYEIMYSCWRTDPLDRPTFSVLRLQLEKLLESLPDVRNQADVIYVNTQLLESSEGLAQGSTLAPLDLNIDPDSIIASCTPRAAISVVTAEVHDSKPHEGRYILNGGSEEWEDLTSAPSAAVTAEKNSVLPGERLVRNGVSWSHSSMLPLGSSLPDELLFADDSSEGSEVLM
# Chain of FGFR3 (P22607 whole entry, looked up): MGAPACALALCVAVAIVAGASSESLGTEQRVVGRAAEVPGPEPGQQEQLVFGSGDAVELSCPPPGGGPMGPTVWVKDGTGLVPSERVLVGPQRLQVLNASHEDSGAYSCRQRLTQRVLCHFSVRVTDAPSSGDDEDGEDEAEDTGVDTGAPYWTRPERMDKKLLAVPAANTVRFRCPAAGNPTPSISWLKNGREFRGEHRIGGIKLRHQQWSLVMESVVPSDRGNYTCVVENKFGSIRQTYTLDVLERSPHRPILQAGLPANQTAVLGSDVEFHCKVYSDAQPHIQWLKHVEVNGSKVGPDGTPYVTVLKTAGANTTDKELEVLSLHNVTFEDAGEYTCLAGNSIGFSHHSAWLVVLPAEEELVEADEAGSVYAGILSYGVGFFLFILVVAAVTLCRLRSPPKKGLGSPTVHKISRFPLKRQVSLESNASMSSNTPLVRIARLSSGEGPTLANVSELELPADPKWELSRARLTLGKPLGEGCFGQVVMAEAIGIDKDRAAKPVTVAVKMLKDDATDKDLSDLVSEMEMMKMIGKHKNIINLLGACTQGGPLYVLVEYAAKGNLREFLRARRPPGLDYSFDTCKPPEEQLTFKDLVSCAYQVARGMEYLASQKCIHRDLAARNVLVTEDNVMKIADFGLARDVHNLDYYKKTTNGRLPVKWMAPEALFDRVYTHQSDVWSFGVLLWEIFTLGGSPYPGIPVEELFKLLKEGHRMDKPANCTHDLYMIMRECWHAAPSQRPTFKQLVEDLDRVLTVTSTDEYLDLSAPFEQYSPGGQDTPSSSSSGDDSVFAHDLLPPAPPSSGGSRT
SH2 binding enrichment (Grb2 SH2),SH2 binding enrichment (SHP2-C SH2),SH2 binding enrichment (c-Src SH2),Sequence,phosphorylation enrichment (MERTK),phosphorylation enrichment (EPHB2),phosphorylation enrichment (Fer (mouse)),phosphorylation enrichment (Jak2),phosphorylation enrichment (c-Abl (mouse)),phosphorylation enrichment (c-Src),phosphorylation enrichment (FGFR3),phosphorylation enrichment (Fyn),phosphorylation enrichment (FGFR1),phosphorylation enrichment (Hck),phosphorylation enrichment (AncSZ),phosphorylation enrichment (EPHB1),phosphorylation enrichment (Fes)
1.76,1.49,1.42,LPHVIYCRLWC [SMAD2_Y128_R133C],2.98,3.17,0.851,1.95,4.33,4.81,0.645,5.86,0.557,6.12,1.12,7.33,1.35
1.17,1.04,1.49,DRKRQYELLKL [KIF4B_Y684],0.4,0.462,0.421,0.876,0.545,0.395,0.576,0.392,0.331,0.488,0.682,0.44,0.758
0.868,0.604,0.574,EEQKKYFNAVK [SCN5A_Y1494_M1498V_YF],0.482,0.566,0.414,0.727,0.742,0.383,0.567,0.506,0.358,0.483,0.832,0.482,1.05
0.849,0.496,0.506,FFRDGCMPRQF [GSS_Y270_Y270C_YF],0.386,0.518,0.489,0.949,0.717,0.463,0.606,0.464,0.416,0.497,0.863,0.533,1.2
0.708,0.632,0.356,ILDEAYVMASV [EGFR_Y764],0.409,0.559,0.538,1.07,0.692,0.612,0.763,0.505,0.641,0.515,1.16,0.598,1.33
0.866,0.827,1.01,YGAHNYHPLPV [OAT_Y55],2.37,1.53,1.06,0.642,0.675,0.632,5.68,0.599,9.73,1.28,0.61,1.24,0.728
0.9,0.891,0.443,SAAAIYTVRHP [PMP22_Y117],1.92,0.516,0.474,0.506,0.67,6.41,0.43,5.3,0.487,7.82,0.615,0.54,0.601
0.853,0.699,0.589,CGTPDYIAPEI [PRKCG_Y521],0.444,0.755,0.484,0.882,0.632,0.433,1.26,0.53,1.23,0.568,1.99,0.715,1.14
0.674,0.495,0.511,AIYRRYSKFFD [SH3PXD2B_Y45],0.596,0.568,0.383,0.83,0.783,0.636,0.555,0.485,0.509,0.594,0.989,0.603,1.03
0.816,0.807,0.465,HTVEDYQAIVD [CCT7_Y263],0.734,0.936,0.85,1.67,1.68,0.836,1.06,0.773,0.818,0.794,1.73,0.882,2.21
0.802,0.738,0.609,STEEQYRIRQV [EFHC1_Y115],0.345,0.416,0.375,0.516,0.43,0.331,0.554,0.475,0.425,0.41,0.718,0.314,0.589
0.723,0.501,0.498,INMKEYCKKDY [NTN1_Y490_K489E],0.364,0.462,0.615,1.29,0.661,0.429,0.595,0.451,0.447,0.477,0.824,0.461,0.944
0.751,0.559,0.509,DTYDPYLDVAL [USP36_Y268],0.412,0.776,0.661,1.1,0.859,1.43,0.853,1.19,0.742,0.846,1.55,0.805,1.32
0.719,0.647,0.418,KLQKFYRQNPD [EHHADH_Y683_YF],0.452,0.348,0.387,0.393,0.581,0.409,0.416,0.418,0.343,0.443,0.499,0.545,0.498
1.52,1.64,1.09,NIFSFYLSRDP [CTSD_Y232],0.333,0.506,0.528,0.951,0.619,0.409,0.697,0.4,0.348,0.461,0.85,0.551,1.14
1.58,6.33,5.17,CTTIHYSYMCN [TP53_Y234_N235S],0.874,0.628,1.01,0.663,0.627,0.526,0.724,0.465,0.667,0.53,0.897,0.524,0.916

# Source: the supplement of paper PMC10065799, “High-throughput profiling of sequence recognition by tyrosine kinases and SH2 domains using bacterial peptide display” (eLife, 2023)
